Reference: PMC11098746 (2024)
No end group written: not given here.

These binders were tested against Circumsporozoite protein (CSP) (Plasmodium falciparum (isolate 3D7), UniProt Q7K740) (assay: AVEXIS screen signal:noise (double-corrected)).
Sequence of Circumsporozoite protein (CSP) (Q7K740 19-374): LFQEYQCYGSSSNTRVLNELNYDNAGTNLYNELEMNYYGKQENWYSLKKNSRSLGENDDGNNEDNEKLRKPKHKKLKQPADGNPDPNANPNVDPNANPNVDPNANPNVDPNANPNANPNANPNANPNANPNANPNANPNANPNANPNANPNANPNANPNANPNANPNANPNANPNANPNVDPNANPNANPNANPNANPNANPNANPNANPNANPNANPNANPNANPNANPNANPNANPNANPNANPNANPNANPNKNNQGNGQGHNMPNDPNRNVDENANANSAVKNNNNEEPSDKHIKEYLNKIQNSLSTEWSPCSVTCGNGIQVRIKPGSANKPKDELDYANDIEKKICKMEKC

Binder | binding score
ADP344 (protein, bait human Fc-tagged dimer) MAWSFFRVVAMLFIFLVVVEVNSEFRIQVRDYNTKNGTIKWHSIRRQKREWIKFAAACREGEDNSKRNPIAKIHSDCAANQQVTYRISGVGIDQPPYGIFVINQKTGEINITSIVDREVTPFFIIYCRALNSMGQDLERPLELRVRVLDINDNPPVFSMATFAGQIEENSNANTLVMILNATDADEPNNLNSKIAFKIIRQEPSDSPMFIINRNTGEIRTMNNFLDREQYGQYALAVRGSDRDGGADGMSAECECNIKILDVNDNIPYMEQSSYTIEIQENTLNSNLLEIRVIDLDEEFSANWMAVIFFISGNEGNWFEIEMNERTNVGILKVVKPLDYEAMQSLQLSIGVRNKAEFHHSIMSQYKLKASAISVTVLNVIEGPVFRPGSKTYVVTGNMGSNDKVGDFVATDLDTGRPSTTVRYVMGNNPADLLAVDSRTGKLTLKNKVTKEQYNMLGGKYQGTILSIDDNLQRTCTGTININIQSFGNDDRTNTEPNTKITTNTGRQESTSSTNYDTSTTSTDSSQVYSSEPGNGAKDLLSDNVHFGPAG | 1.01
ADP101 (protein, also: human Fc-tagged dimer) MWSTRSPNSTAWPLSLEPDPGMASASTTMHTTTIAEPDPGMSGWPDGRMETSTPTIMD | 1.1
ADP351 (protein, bait human Fc-tagged dimer) MARRRGSPGMGVHVGAALGALWFCLTGALEVQVPEDPVVALVGTDATLCCSFSPEPGFSLAQLNLIWQLTDTKQLVHSFAEGQDQGSAYANRTALFPDLLAQGNASLRLQRVRVADEGSFTCFVSIRDFGSAAVSLQVAAPYSKPSMTLEPNKDLRPGDTVTITCSSYQGYPEAEVFWQDGQGVPLTGNVTTSQMANEQGLFDVHSILRVVLGANGTYSCLVRNPVLQQDAHSSVTITPQRSPTGAVEVQVPEDPVVALVGTDATLRCSFSPEPGFSLAQLNLIWQLTDTKQLVHSFTEGRDQGSAYANRTALFPDLLAQGNASLRLQRVRVADEGSFTCFVSIRDFGSAAVSLQVAAPYSKPSMTLEPNKDLRPGDTVTITCSSYRGYPEAEVFWQDGQGVPLTGNVTTSQMANEQGLFDVHSVLRVVLGANGTYSCLVRNPVLQQDAHGSVTITGQPMTFPP | 1.23
ADP348 (protein, bait human Fc-tagged dimer) MAASAGAGAVIAAPDSRRWLWSVLAAALGLLTAGVSALEVYTPKEIFVANGTQGKLTCKFKSTSTTGGLTSVSWSFQPEGADTTVSFFHYSQGQVYLGNYPPFKDRISWAGDLDKKDASINIENMQFIHNGTYICDVKNPPDIVVQPGHIRLYVVEKENLPVFP | 0.706
ADP389 (protein, bait human Fc-tagged dimer) PSSLSQEQSEQDAIYQNLTQLKAAVGELSEKSKLQEIYQELTQLKAAVGELPEKSKLQEIYQELTRLKAAVGELPEKSKLQEIYQELTRLKAAVGELPEKSKLQEIYQELTRLKAAVGELPEKSKLQEIYQELTELKAAVGELPEKSKLQEIYQELTQLKAAVGELPDQSKQQQIYQELTDLKTAFERLCRHCPKDWTFFQGNCYFMSNSQRNWHDSVTACQEVRAQLVVIKTAEEQNFLQLQTSRSNRFSWMGLSDLNQEGTWQWVDGSPLSPSFQRYWNSGEPNNSGNEDCAEFSGSGWNDNRCDVDNYWICKKPAACFRDE | 0.72
ADP338 (protein, bait human Fc-tagged dimer) MAPRAARAPATLLLALGAVLWPAAGAWELTILHTNDVHSRLEQTSEDSSKCVNASRCMGGVARLFTKVQQIRRAEPNVLLLDAGDQYQGTIWFTVYKGAEVAHFMNALRYDAMALGNHEFDNGVEGLIEPLLKEAKFPILSANIKAKGPLASQISGLYLPYKVLPVGDEVVGIVGYTSKETPFLSNPGTNLVFEDEITALQPEVDKLKTLNVNKIIALGHSGFEMDKLIAQKVRGVDVVVGGHSNTFLYTGNPPSKEVPAGKYPFIVTSDDGRKVPVVQAYAFGKYLGYLKIEFDERGNVISSHGNPILLNSSIPEDPSIKADINKWRIKLDNYSTQELGKTIVYLDGSSQSCRFRECNMGNLICDAMINNNLRHTDEMFWNHVSMCILNGGGIRSPIDERNNGTITWENLAAVLPFGGTFDLVQLKGSTLKKAFEHSVHRYGQSTGEFLQVGGIHVVYDLSRKPGDRVVKLDVLCTKCRVPSYDPLKMDEVYKVILPNFLANGGDGFQMIKDELLRHDSGDQDINVVSTYISKMKVIYPAVEGRIKFSTGS | 1.27
ADP156 (protein, bait human Fc-tagged dimer) MAILSFLPVLATESDWADCKSPQPWGHMLLWTAVLFLAPVAGTPAAPPKAVLKLEPQWINVLQEDSVTLTCRGTHSPESDSIQWFHNGNLIPTHTQPSYRFKANNNDSGEYTCQTGQTSLSDPVHLTVLSEWLVLQTPHLEFQEGETIVLRCHSWKDKPLVKVTFFQNGKSKKFSRSDPNFSIPQANHSHSGDYHCTGNIGYTLYSSKPVTITVQAPSSSPM | 1.12
ADP301 (protein, bait human Fc-tagged dimer) MAKLIALTLLGMGLALFRNHQSSYQTRLNALREVQPVELPNCNLVKGIETGSEDLEILPNGLAFISSGLKYPGIKSFNPNSPGKILLMDLNEEDPTVLELGITGSKFDVSSFNPHGISTFTDEDNAMYLLVVNHPDAKSTVELFKFQEEEKSLLHLKTIRHKLLPNLNDIVAVGPEHFYGTNDHYFLDPYLQSWEMYLGLAWSYVVYYSPSEVRVVAEGFDFANGINISPDGKYVYIAELLAHKIHVYEKHANWTLTPLKSLDFNTLVDNISVDPETGDLWVGCHPNGMKIFFYDSENPPASEVLRIQNILTEEPKVTQVYAENGTVLQGSTVASVYKGKLLIGTVFHKALYCEL | 1.58
ADP365 (protein, bait human Fc-tagged dimer) MALGSPGLLFLLFSSLRADTQEKEVRAMVGSDVELSCACPEGSRFDLNDVYVYWQTSESKTVVTYHIPQNSSLENVDSRYRNRALMSPAGMLRGDFSLRLFNVTPQDEQKFHCLVLSQSLGFQEVLSVEVTLHVAANFSVPVVSAPHSPSQDELTFTCTSINGYPRPNVYWINKTDNSLLDQALQNDTVFLNMRGLYDVVSVLRIARTPSVNIGCCIENVLLQQNLTVGSQTGNDIGERDKITENPVSTG | 2.12
ADP282 (protein, bait human Fc-tagged dimer) STWVTSEAYSSPSIVLSARGGDGSRIIFDDFREAYYWLRHNTPEDAKVMSWWDYGYQITAMANRTILVDNNTWNNTHISRVGQAMASTEEKAYEIMRELDVSYVLVIFGGLTGYSSDDINKFLWMVRIGGSTDTGKHIKENDYYTPTGEFRVDREGSPVLLNCLMYKMCYYRFGQVYTEAKRPPGFDRVRNAEIGNKDFELDVLEEAYTTEHWLVRIYKVKDLDNRGLSRT | 0.691
ADP396 (protein, bait human Fc-tagged dimer) PSLIKQQVLKNVRIDPSSLSFNMWKEIPIPFYLSVYFFDVMNPSEILKGEKPQVRERGPYVYREFRHKSNITFNNNDTVSFLEYRTFQFQPSKSHGSESDYIVMPNILVLGAAVMMENKPMTLKLIMTLAFTTLGERAFMNRTVGEIMWGYKDPLVNLINKYFPGMFPFKDKFGLFAELNNSDSGLFTVFTGVQNISRIHLVDKWNGLSKVDFWHSDQCNMINGTSGQMWPPFMTPESSLEFYSPEACRSMKLMYKESGVFEGIPTYRFVAPKTLFANGSIYPPNEGFCPCLESGIQNVSTCRFSAPLFLSHPHFLNADPVLAEAVTGLHPNQEAHSLFLDIHPVTGIPMNCSVKLQLSLYMKSVAGIGQTGKIEPVVLPLLWFAESGAMEGETLHTFYTQLVLMPKVMHY | 2.67
ADP322 (protein, bait human Fc-tagged dimer) MAALGPALLQALWAGWVLTLQPLPPTAFTPNGTYLQHLARDPTSGTLYLGATNFLFQLSPGLQLEATVSTGPVLDSRDCLPPVMPDECPQAQPTNNPNQLLLVSPGALVVCGSVHQGVCEQRRLGQLEQLLLRPERPGDTQYVAANDPAVSTVGLVAQGLAGEPLLFVGRGYTSRGVGGGIPPITTRALWPPDPQAAFSYEETAKLAVGRLSEYSHHFVSAFARGASAYFLFLRRDLQAQSRAFRAYVSRVCLRDQHYYSYVELPLACEGGRYGLIQAAAVATSREVAHGEVLFAAFSSAAPPTVGRPPSAAAGASGASALCAFPLDEVDRLANRTRDACYTREGRAEDGTEVAYIEYDVNSDCAQLPVDTLDAYPCGSDHTPSPMASRVPLEATPILEWPGIQLTAVAVTMEDGHTIAFLGDSQGQLHRVYLGPGSDGHPYSTQSIQQGSAVSRDLTFDGTFEHLYVMTQSTLLKVPVASCAQHLDCASCLAHRDPYCGWCVLLGRCSRRSECSRGQGPEQWLWSFQPELGCLQVAAMSPANISREETREVFLSVPDLPPLWPGESYSCHFGEHQSPALLTGSGVMCPSPDPSEAPVLPRGADYVSVSVELRFGAVVIAKTSLSFYDCVAVTELRPSAQCQACVSSRWGCNWCVWQHLCTHKASCDAGPMVASHQSPLVSPDPPARGGPSPSPPTAPKALATPAPDTLPVEPGAPSTATASDISPGASPSLLSPWGPWAGSGSISSPGSTGSPLHEEPSPPSPQNGPGTAVPAPTDFRPSATPEDLLASPLSPSEVAAVPPADPGPEALHPTVPLDLPPATVPATTFPGAMGSVKPALDWLTREGGELPEADEWTGGDAPAFSTSTLLSGDGDSAELEGPPAPLILPSSLDYQYDTPGLWELEEATLGASSCPCVESVQGSTLMPVHVEREIRLLGRNLHLFQDGPGDNECVMELEGLEVVVEARVECEPPPDTQCHVTCQQHQLSYEALQPELRVGLFLRRAGRLRVDSAEGLHVVLYDCSVGHGDCSRCQTAMPQYGCVWCEGERPRCVTREACGEAEAVATQCPAPLIHSVEPLTGPVDGGTRVTIRGSNLGQHVQDVLGMVTVAGVPCAVDAQEYEVSSSLVCITGASGEEVAGATAVEVPGRGRGVSEHDFAYQDPKVHSIFPARGPRAGGTRLTLNGSKLLTGRLEDIRVVVGDQPCHLLPEQQSEQLRCETSPRPTPATLPVAVWFGATERRLQRGQFKYTLDPNITSAGPTKSFLSGGREICVRGQNLDVVQTPRIRVTVVSRMLQPSQGLGRRRRVVPETACSLGPSCSSQQFEEPCHVNSSQLITCRTPALPGLPEDPWVRVEFILDNLVFDFATLNPTPFSYEADPTLQPLNPEDPTMPFRHKPGSVFSVEGENLDLAMSKEEVVAMIGDGPCVVKTLTRHHLYCEPPVEQPLPRHHALREAPDSLPEFTVQMGNLRFSLGHVQYDGESPGAFPVAAQ | 2.59
ADP288 (protein, also: human Fc-tagged dimer) MDHSHHMGMSYMDSNSTMQPSHHHPTTSASHSHGGGDSSMMMMPMTFYFGFKNVELLFSGL | 0.576
